Target: HA-Cep57 (centrosomal protein of 57 kDa, full length), Q86XR8-1
Test: co-IP (FLAG IP, HA-Cep57 western blot band quantification)
Conditions: HEK293T cells; three independent experiments; parent: est. 1.0; read off a plot

Sequence of HA-Cep57 (centrosomal protein of 57 kDa, full length), Q86XR8-1 (Q86XR8 whole entry): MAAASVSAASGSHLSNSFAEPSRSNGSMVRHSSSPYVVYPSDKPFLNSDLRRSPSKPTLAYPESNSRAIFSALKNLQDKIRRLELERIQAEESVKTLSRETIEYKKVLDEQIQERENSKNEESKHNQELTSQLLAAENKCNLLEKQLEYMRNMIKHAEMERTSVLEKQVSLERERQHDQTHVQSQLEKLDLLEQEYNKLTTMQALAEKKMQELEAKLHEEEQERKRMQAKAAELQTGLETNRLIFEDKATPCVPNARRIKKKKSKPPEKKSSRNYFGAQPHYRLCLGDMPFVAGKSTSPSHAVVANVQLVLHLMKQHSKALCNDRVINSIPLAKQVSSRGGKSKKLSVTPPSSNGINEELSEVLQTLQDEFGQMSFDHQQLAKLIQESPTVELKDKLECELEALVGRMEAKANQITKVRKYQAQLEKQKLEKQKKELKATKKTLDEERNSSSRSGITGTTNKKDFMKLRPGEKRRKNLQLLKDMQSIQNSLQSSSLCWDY

FLAG-PCNT 2536–3336 WT K3154del was tested, and the response was 0.11.
